# T1: cynomolgus monkey RXFP1 receptor (cynomolgus monkey, UniProt H9ERA2 1-757 (rhesus entry))
# T1 sequence: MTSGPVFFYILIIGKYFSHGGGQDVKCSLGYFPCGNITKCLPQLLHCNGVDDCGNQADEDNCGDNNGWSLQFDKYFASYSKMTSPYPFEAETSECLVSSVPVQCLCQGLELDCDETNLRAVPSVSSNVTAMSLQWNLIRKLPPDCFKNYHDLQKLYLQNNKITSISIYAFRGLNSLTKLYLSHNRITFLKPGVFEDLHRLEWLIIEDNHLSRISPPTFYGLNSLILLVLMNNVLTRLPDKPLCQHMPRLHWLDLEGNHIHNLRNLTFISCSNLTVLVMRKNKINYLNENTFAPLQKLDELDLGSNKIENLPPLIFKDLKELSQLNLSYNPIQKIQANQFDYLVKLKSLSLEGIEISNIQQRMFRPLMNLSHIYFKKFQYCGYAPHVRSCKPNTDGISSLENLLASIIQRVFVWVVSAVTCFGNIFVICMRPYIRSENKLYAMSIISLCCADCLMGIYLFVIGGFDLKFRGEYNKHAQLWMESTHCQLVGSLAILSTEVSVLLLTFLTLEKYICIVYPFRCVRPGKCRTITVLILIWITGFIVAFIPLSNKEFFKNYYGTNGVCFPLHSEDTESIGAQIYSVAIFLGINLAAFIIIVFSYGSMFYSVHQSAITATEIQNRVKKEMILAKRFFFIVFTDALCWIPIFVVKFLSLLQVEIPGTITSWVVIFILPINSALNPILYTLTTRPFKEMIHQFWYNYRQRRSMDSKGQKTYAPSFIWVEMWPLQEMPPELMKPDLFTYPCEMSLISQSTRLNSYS
# T2: mouse RXFP1 receptor (mouse, UniProt Q6R6I7 1-758)
# T2 sequence (looked up): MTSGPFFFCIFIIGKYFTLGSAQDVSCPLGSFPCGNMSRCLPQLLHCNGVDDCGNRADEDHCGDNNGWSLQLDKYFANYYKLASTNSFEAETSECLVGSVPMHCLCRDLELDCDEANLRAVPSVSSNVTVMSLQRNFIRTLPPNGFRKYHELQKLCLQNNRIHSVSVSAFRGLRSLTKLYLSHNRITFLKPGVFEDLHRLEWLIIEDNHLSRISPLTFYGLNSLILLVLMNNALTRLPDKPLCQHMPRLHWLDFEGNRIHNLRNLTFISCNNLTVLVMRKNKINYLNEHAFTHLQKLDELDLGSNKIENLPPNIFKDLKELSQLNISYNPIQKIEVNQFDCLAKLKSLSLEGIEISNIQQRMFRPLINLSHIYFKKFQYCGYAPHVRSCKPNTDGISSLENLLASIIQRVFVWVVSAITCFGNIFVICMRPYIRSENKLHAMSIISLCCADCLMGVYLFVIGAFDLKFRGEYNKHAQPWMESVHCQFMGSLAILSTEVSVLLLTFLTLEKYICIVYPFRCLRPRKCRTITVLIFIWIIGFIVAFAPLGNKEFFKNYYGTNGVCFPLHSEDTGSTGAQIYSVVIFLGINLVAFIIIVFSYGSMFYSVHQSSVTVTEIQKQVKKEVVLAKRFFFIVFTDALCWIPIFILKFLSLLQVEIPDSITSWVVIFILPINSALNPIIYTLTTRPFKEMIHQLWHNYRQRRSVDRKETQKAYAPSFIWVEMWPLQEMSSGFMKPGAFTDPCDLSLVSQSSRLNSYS
# T3: rat RXFP1 receptor (rat, UniProt Q6R6I6 1-758)
# T3 sequence (looked up): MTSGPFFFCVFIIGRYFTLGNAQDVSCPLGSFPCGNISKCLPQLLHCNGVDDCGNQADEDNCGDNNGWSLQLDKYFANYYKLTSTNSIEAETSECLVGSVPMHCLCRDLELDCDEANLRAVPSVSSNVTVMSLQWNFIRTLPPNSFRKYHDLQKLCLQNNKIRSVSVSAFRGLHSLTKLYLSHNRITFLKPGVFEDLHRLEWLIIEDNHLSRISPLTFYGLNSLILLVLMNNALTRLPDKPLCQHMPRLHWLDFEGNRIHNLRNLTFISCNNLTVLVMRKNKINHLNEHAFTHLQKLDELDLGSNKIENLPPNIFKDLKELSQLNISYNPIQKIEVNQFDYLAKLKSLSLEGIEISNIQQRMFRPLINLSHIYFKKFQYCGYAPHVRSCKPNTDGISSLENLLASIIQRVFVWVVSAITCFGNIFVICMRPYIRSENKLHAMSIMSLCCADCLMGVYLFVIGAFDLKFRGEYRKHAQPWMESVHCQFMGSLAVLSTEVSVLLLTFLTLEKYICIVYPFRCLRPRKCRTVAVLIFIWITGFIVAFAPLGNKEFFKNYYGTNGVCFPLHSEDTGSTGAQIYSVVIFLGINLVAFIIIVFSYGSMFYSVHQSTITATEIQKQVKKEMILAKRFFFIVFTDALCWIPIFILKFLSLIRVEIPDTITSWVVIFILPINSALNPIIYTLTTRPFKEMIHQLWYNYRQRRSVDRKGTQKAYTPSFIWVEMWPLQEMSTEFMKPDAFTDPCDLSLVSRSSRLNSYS
# How the values were obtained:
# Assay in all cases: cell-based or functional assay
# dog RXFP1 receptor = dog RXFP1 receptor (dog)
# [1] = molecular target: T1, cynomolgus monkey RXFP1 receptor
# human RXFP2 receptor = human RXFP2 receptor (human, UniProt Q8WXD0 1-754)
# mouse RXFP1 receptor = molecular target: T2, mouse RXFP1 receptor
# rat RXFP1 receptor = molecular target: T3, rat RXFP1 receptor
binder,measurement,setting,value
"0051 (other, Single-chain fusion: anti-HSA VHH, linker, relaxin-2 B chain, linker, relaxin-2 A chain; also called fusion protein 0051; molecule 0051) EVQLLESGGGLVQPGGSLRLSCAASGFTFLTSCMGWFRQAPGKEREGVSSIYTVGGSTFYTNSVKGRFTISRDNSKNTLYLQMNSLRAEDTAVYYCAAGSPARCRLRDPTTFDYWGQGTLVTVSSGGGGQGGGGQGGGGQGGGGQGGGGQSWMEEVIKLCGRELVRAQIAICGMSTWSGGGSGGSGGGQLYSALANKCCHVGCTKRSLARFC","EC50 (nM), cAMP production in CHO-K1 cells with receptor overexpression",dog RXFP1 receptor,2210 nM
same,"EC50 (nM), cAMP production in CHO-K1 cells with receptor overexpression",[1],25.1 nM
same,"EC50 (nM), cAMP production in CHO-K1 cells with receptor overexpression",human RXFP2 receptor,1250 nM
same,"EC50 (nM), cAMP production in CHO-K1 cells with receptor overexpression",mouse RXFP1 receptor,21.7 nM
same,"EC50 (nM), cAMP production in CHO-K1 cells with receptor overexpression",rat RXFP1 receptor,21.1 nM

# From US20250312444A1 (BEIJING TUO JIE BIOPHARMACEUTICAL, published 2025)
